B1: CPEB3 Ribozyme (parent)
chain: GGGGGCCACAGCAGAAGCGUUCACGUCGCGGCCCCUGUCAGAUUCUGGUGAAUCUGCGAAUUCUGCUGU

Variants of: B1
Assay: self-cleavage, relative activity (ratio to wild type); higher = more cleavage; co-transcriptional

Variant	self-cleavage
G17A G41A	0.133
G17A G41C	0.141
G17A G41U	0.183
A16G G68C	0.981
A16G G68U	0.956
G17A A40U	0.2
G17A A40C	0.145
G17A A60U	0.203
A16G U36C	0.724
A16U U61G	0.902
A16U U61A	0.93
A16U U61C	0.599
A16U U44C	0.703
A16U U44A	0.729
A16U G50U	0.862
A16U C57U	0.196
A16U C57G	0.246
A16G G65C	0.446
A16U G31A	0.482
A16G A60C	0.58
A16G A60U	0.207
A16G U61C	0.951
A16G U61G	0.732
A16G U61A	0.833

Variant	self-cleavage
A16G U67G	0.951
A16G U67C	0.935
G17A U36G	0.117
G17A U36C	0.225
G17A U36A	0.0937
A16U A51G	0.841
A16U A51U	0.853
A16C U46A	0.51
A16C U38A	0.269
A16C U38C	0.137
A16C U38G	0.15
A16G A42C	0.608
A16G A59C	0.417
A16G A59G	0.944
G17A G25C	0.147
G17A G25U	0.117
G17A G25A	0.201
A16C G48U	0.375
A16G C34G	0.576
A16G C34A	0.583
A16G C34U	0.845
G17A C22A	0.157
G17A C22G	0.127
A16U A42G	0.739

Variant	self-cleavage
A16U A42C	0.746
A16C G50C	0.301
G17A C24G	0.116
G17A C24A	0.221
G17A U61G	0.237
G17A C57U	0.197
G17A C57A	0.145
G17A C57G	0.227
A16G U53C	0.622
G17A A59G	0.691
A16U C63G	0.361
A16G G56C	0.458
A16G G56A	0.703
A16G A51G	0.894
A16G A51C	0.819
G17A U46C	0.417
A16C U55A	0.153
A16C U55G	0.204
A16U U46C	0.874
G17A C29A	0.572
G17A C29U	0.858
A16G G58C	0.95
A16U U69C	1.02
A16U U69A	0.923

Variant	self-cleavage
A16U U55G	0.335
A16G C39U	0.808
A16G C39A	0.591
A16G C39G	0.745
A16G U44A	0.835
G17A A52U	0.519
G17A A52G	0.596
A16G U38C	0.665
A16G U38A	0.767
A16U G65A	0.442
A16G C22G	0.0656
A16G C57G	0.324
A16G C57A	0.335
A16G C57U	0.317
A16U U49G	0.817
A16U U49C	0.834
A16U U49A	0.96
G17A A42C	0.253
G17A A42U	0.314
A16U U67A	0.877
A16U U67G	0.9
G17A C32G	0.13
G17A C32U	0.625
A16G A40C	0.243

Variant	self-cleavage
A16G A40U	0.409
A16U C35A	0.159
A16U C35G	0.213
A16U C35U	0.768
A16U C45A	0.842
A16U G56C	0.82
A16U G56A	0.616
A16U G56U	0.624
A16U G28C	0.166
A16U G28U	0.131
A16U G28A	0.0797
G17A C63A	0.171
G17A C63G	0.257
A16G U62C	0.788
A16G U62A	0.712
A16G G17A	0.0854
A16G G17U	0.559
A16U C22A	0.12
G17A G47A	0.541
G17A G47C	0.641
A16G C33U	0.946
A16G C33G	0.29
G17A U53A	0.237
G17A U53G	0.38

Variant	self-cleavage
G17A U53C	0.22
A16C U49A	0.419
A16C U49G	0.319
A16C U49C	0.377
G17A C45G	0.435
G17A C45A	0.366
A16U U64G	0.545
A16U U64A	0.588
A16U U64C	0.463
A16U A23U	0.867
A16U A23G	0.528
A16U C39U	0.533
A16U C39G	0.693
A16U C39A	0.317
A16C U44C	0.178
G17A U38G	0.11
G17A U38C	0.314
A16U G37A	0.154
A16U G37U	0.173
A16U C24A	0.23
A16C U36A	0.115
A16C U36C	0.165
A16C U36G	0.108
A16U C66A	0.427

Variant	self-cleavage
A16U C66U	0.785
A16U C66G	0.356
G17A C35G	0.179
G17A C35A	0.136
A16C U61G	0.848
A16C U43A	0.118
G17A G50A	0.488
G17A G50U	0.547
G17A G50C	0.387
A16G G37U	0.216
A16G G37C	0.146
A16U U26A	0.221
A16U U26C	0.812
G17A G19U	0.114
G17A G19A	0.154
G17A G19C	0.095
A16U A59U	0.381
G17A U55G	0.16
A16G G28C	0.0652
A16C G56U	0.145
A16U G19U	0.164
A16U G19A	0.13
A16G C32U	0.941
